This is an account of results in US20140302035A1 (MERRIMACK PHARMACEUTICALS, published 2014).

B1: Ab#9 (bispecific antibody, human IgG1, kappa)
heavy: QLQLQESGPGLVKPSETLSLTCTVSGGSISSSVYYWSWIRQPPGKGLEWIGVIYPSGNTYYSPSLKSRVTISVDTSKNQFSLKLSSVTAADTAVYYCARTIYDLFDIWGQGTMVTVSSASTKGPSVFPLAPSSKSTSGGTAALGCLVKDYFPEPVTVSWNSGALTSGVHTFPAVLQSSGLYSLSSVVTVPSSSLGTQTYICNVNHKPSNTKVDKKVEPKSCDKTHTCPSCPAPEFLGGPSVFLFPPKPKDTLMISRTPEVTCVVVDVSQEDPEVQFNWYVDGVEVHNAKTKPREEQFNSKYRVVSVLTVLHQDWLNGKEYKCKVSNKGLPSSIEKTISKAKGQPREPQVYTLPPSREEMTKNQVSLSCAVKGFYPSDIAVEWESNGQPENNYKTTPPVLDSDGSFFLVSKLTVDKSRWQQGNVFSCSVMHEALHNHYTQKSLSLSKSCDKTGGGGSGGGGSGGGGSGGGGSGGGGSGGGGSGGGGSGGGGSCPSCPAPEFLGGPSVFLFPPKPKDTLMISRTPEVTCVVVDVSQEDPEVQFNWYVDGVEVHNAKTKPREEQFNSDYRVVSVLTVLHQDWLNGKEYKCKVSNKGLPSSIEKTISKAKGQPREPQVYTLPPSREEMTKNQVSLWCLVKGFYPSDIAVEWESNGQPENNYKTTPPVLDSDGSFFLYSKLTVDKSRWQQGNVFSCSVMHEALHNHYTQKSLSLSGECGGGGSGGGGSQVQLQQSGGGLVKPGESVKISCAASGYTFTNYGMNWVKQAPGKGLKWMGWINTYTGESTYADDFKGRFTFSLETSASAAYLQINSLRPEDTAVYFCARFAIKGDYWGQGTTVTVSSASTGGGGSGGGGSGGGGSGGGGSGDIVMTQSPSSLSASVGDKATITCRSTKSLLHSNGITYLYWYLQKPGKAPKLLIYQMSNLASGVPDRFSSSGSGTEFTLTISSVQPEDEGTYYCAQNLEIPRTFGQGTKLEIK
light: DIQMTQSPSSVSASVGDRVTITCRASQGISSWLAWYQQKPGKAPKLLIYAASSLQSGVPSRFSGSGSGTDFTLTISSLQPEDFATYYCLQANSFPPTFGGGTKVEIKRTVAAPSVFIFPPSDEQLKSGTASVVCLLNNFYPREAKVQWKVDNALQSGNSQESVTEQDSKDSTYSLSSTLTLSKADYEKHKVYACEVTHQGLSSPVTKSFNRGEC
notes: Anti-c-Met Fab / tandem Fc / anti-EpCAM scFv TFcBA; also called Antibody #9
B2: Ab#11 (bispecific antibody, human IgG1, kappa)
heavy: QLQLQESGPGLVKPSETLSLTCTVSGGSISSSVYYWSWIRQPPGKGLEWIGVIYPSGNTYYSPSLKSRVTISVDTSKNQFSLKLSSVTAADTAVYYCARTIYDLFDIWGQGTMVTVSSASTKGPSVFPLAPSSKSTSGGTAALGCLVKDYFPEPVTVSWNSGALTSGVHTFPAVLQSSGLYSLSSVVTVPSSSLGTQTYICNVNHKPSNTKVDKKVEPKSCDKTHTCPSCPAPEFLGGPSVFLFPPKPKDTLMISRTPEVTCVVVDVSQEDPEVQFNWYVDGVEVHNAKTKPREEQFNSKYRVVSVLTVLHQDWLNGKEYKCKVSNKGLPSSIEKTISKAKGQPREPQVYTLPPSREEMTKNQVSLSCAVKGFYPSDIAVEWESNGQPENNYKTTPPVLDSDGSFFLVSKLTVDKSRWQQGNVFSCSVMHEALHNHYTQKSLSLSKSCDKTGGGGSGGGGSGGGGSGGGGSGGGGSGGGGSGGGGSGGGGSCPSCPAPEFLGGPSVFLFPPKPKDTLMISRTPEVTCVVVDVSQEDPEVQFNWYVDGVEVHNAKTKPREEQFNSDYRVVSVLTVLHQDWLNGKEYKCKVSNKGLPSSIEKTISKAKGQPREPQVYTLPPSREEMTKNQVSLWCLVKGFYPSDIAVEWESNGQPENNYKTTPPVLDSDGSFFLYSKLTVDKSRWQQGNVFSCSVMHEALHNHYTQKSLSLSGECGGGGSGGGGSDIVMTQSPSSLSASVGDKATITCRSTKSLLHSNGITYLYWYLQKPGKAPKLLIYQMSNLASGVPDRFSSSGSGTEFTLTISSVQPEDEGTYYCAQNLEIPRTFGQGTKLEIKRTGGGGSGGGGSGGGGSGGGGSGQVQLQQSGGGLVKPGESVKISCAASGYTFTNYGMNWVKQAPGKGLKWMGWINTYTGESTYADDFKGRFTFSLETSASAAYLQINSLRPEDTAVYFCARFAIKGDYWGQGTTVTVSS
light: DIQMTQSPSSVSASVGDRVTITCRASQGISSWLAWYQQKPGKAPKLLIYAASSLQSGVPSRFSGSGSGTDFTLTISSLQPEDFATYYCLQANSFPPTFGGGTKVEIKRTVAAPSVFIFPPSDEQLKSGTASVVCLLNNFYPREAKVQWKVDNALQSGNSQESVTEQDSKDSTYSLSSTLTLSKADYEKHKVYACEVTHQGLSSPVTKSFNRGEC
notes: Anti-c-Met Fab / tandem Fc / anti-EpCAM scFv TFcBA; also called Antibody #11
B3: Ab#12 (bispecific antibody)
heavy: QLQLQESGPGLVKPSETLSLTCTVSGGSISSSVYYWSWIRQPPGKGLEWIGVIYPSGNTYYSPSLKSRVTISVDTSKNQFSLKLSSVTAADTAVYYCARTIYDLFDIWGQGTMVTVSSASTKGPSVFPLAPSSKSTSGGTAALGCLVKDYFPEPVTVSWNSGALTSGVHTFPAVLQSSGLYSLSSVVTVPSSSLGTQTYICNVNHKPSNTKVDKKVEPKSCDKTHTCPSCPAPEFLGGPSVFLFPPKPKDTLMISRTPEVTCVVVDVSQEDPEVQFNWYVDGVEVHNAKTKPREEQFNSKYRVVSVLTVLHQDWLNGKEYKCKVSNKGLPSSIEKTISKAKGQPREPQVYTLPPSREEMTKNQVSLSCAVKGFYPSDIAVEWESNGQPENNYKTTPPVLDSDGSFFLVSKLTVDKSRWQQGNVFSCSVMHEALHNHYTQKSLSLSKSCDKTGGGGSGGGGSGGGGSGGGGSGGGGSGGGGSGGGGSGGGGSCPSCPAPEFLGGPSVFLFPPKPKDTLMISRTPEVTCVVVDVSQEDPEVQFNWYVDGVEVHNAKTKPREEQFNSDYRVVSVLTVLHQDWLNGKEYKCKVSNKGLPSSIEKTISKAKGQPREPQVYTLPPSREEMTKNQVSLWCLVKGFYPSDIAVEWESNGQPENNYKTTPPVLDSDGSFFLYSKLTVDKSRWQQGNVFSCSVMHEALHNHYTQKSLSLSGECGGGGSGGGGSDIVMTQSPSSLSASVGDKATITCRSTKSLLHSDGITYLYWYLQKPGKAPKLLIYQLSNLASGVPDRFSSSGSGTEFTLTISSVQPEDEGTYYCAQNLEIPRTFGQGTKLEIKRTGGGGSGGGGSGGGGSGGGGSGQVQLQQSGGGLVKPGESVKISCAASGYTFTNYGMNWVKQAPGKGLKWMGWINTYTGESTYADDFKGRFTFSLETSASAAYLQINSLRPEDTAVYFCARFAIKGDYWGQGTTVTVSS
light: DIQMTQSPSSVSASVGDRVTITCRASQGISSWLAWYQQKPGKAPKLLIYAASSLQSGVPSRFSGSGSGTDFTLTISSLQPEDFATYYCLQANSFPPTFGGGTKVEIKRTVAAPSVFIFPPSDEQLKSGTASVVCLLNNFYPREAKVQWKVDNALQSGNSQESVTEQDSKDSTYSLSSTLTLSKADYEKHKVYACEVTHQGLSSPVTKSFNRGEC
notes: Anti-c-Met Fab / tandem Fc / anti-EpCAM scFv TFcBA; also called Antibody #12
B4: Ab#10 (bispecific antibody, human IgG1, kappa)
heavy: QLQLQESGPGLVKPSETLSLTCTVSGGSISSSVYYWSWIRQPPGKGLEWIGVIYPSGNTYYSPSLKSRVTISVDTSKNQFSLKLSSVTAADTAVYYCARTIYDLFDIWGQGTMVTVSSASTKGPSVFPLAPSSKSTSGGTAALGCLVKDYFPEPVTVSWNSGALTSGVHTFPAVLQSSGLYSLSSVVTVPSSSLGTQTYICNVNHKPSNTKVDKKVEPKSCDKTHTCPSCPAPEFLGGPSVFLFPPKPKDTLMISRTPEVTCVVVDVSQEDPEVQFNWYVDGVEVHNAKTKPREEQFNSKYRVVSVLTVLHQDWLNGKEYKCKVSNKGLPSSIEKTISKAKGQPREPQVYTLPPSREEMTKNQVSLSCAVKGFYPSDIAVEWESNGQPENNYKTTPPVLDSDGSFFLVSKLTVDKSRWQQGNVFSCSVMHEALHNHYTQKSLSLSKSCDKTGGGGSGGGGSGGGGSGGGGSGGGGSGGGGSGGGGSGGGGSCPSCPAPEFLGGPSVFLFPPKPKDTLMISRTPEVTCVVVDVSQEDPEVQFNWYVDGVEVHNAKTKPREEQFNSDYRVVSVLTVLHQDWLNGKEYKCKVSNKGLPSSIEKTISKAKGQPREPQVYTLPPSREEMTKNQVSLWCLVKGFYPSDIAVEWESNGQPENNYKTTPPVLDSDGSFFLYSKLTVDKSRWQQGNVFSCSVMHEALHNHYTQKSLSLSGECGGGGSGGGGSQVQLQQSGGGLVKPGESVKISCAASGYTFTNYGMNWVKQAPGKGLKWMGWINTYTGESTYADDFKGRFTFSLETSASAAYLQINSLRPEDTAVYFCARFAIKGDYWGQGTTVTVSSASTGGGGSGGGGSGGGGSGGGGSGDIVMTQSPSSLSASVGDKATITCRSTKSLLHSDGITYLYWYLQKPGKAPKLLIYQLSNLASGVPDRFSSSGSGTEFTLTISSVQPEDEGTYYCAQNLEIPRTFGQGTKLEIK
light: DIQMTQSPSSVSASVGDRVTITCRASQGISSWLAWYQQKPGKAPKLLIYAASSLQSGVPSRFSGSGSGTDFTLTISSLQPEDFATYYCLQANSFPPTFGGGTKVEIKRTVAAPSVFIFPPSDEQLKSGTASVVCLLNNFYPREAKVQWKVDNALQSGNSQESVTEQDSKDSTYSLSSTLTLSKADYEKHKVYACEVTHQGLSSPVTKSFNRGEC
notes: Anti-c-Met Fab / tandem Fc / anti-EpCAM scFv TFcBA; also called Antibody #10

This test deals with T1, Human EpCAM-Fc-his tagged (human).
T1 construct: also called Recombinant polyhistidine-tagged EpCAM-Fc; recombinant EpCAM
T1 sequence (chain, as listed by the source): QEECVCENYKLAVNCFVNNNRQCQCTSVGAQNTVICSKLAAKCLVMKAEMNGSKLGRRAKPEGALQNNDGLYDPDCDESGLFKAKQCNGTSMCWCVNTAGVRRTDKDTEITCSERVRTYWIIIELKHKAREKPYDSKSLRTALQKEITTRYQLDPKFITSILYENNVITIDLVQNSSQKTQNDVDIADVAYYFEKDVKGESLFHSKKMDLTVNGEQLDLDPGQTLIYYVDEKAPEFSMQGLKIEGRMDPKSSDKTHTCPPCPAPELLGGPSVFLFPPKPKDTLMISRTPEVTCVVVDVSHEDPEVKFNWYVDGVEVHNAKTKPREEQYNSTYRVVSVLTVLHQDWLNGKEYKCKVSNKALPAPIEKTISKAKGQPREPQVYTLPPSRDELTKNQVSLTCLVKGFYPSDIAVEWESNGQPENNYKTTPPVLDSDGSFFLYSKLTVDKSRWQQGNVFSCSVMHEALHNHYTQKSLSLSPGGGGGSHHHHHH
Description: BLI (ForteBio Octet), antibody loaded on Protein A tips, recombinant polyhistidine-tagged EpCAM-Fc in solution, 1:1 model. Here is the method: For Octet analysis, all reagents and samples are brought to room temperature. Protein A sensor tips (ForteBio, #18-5010) are hydrated for 10 minutes in 1×PBS. Assay steps include: 1-2 minutes of equilibration in 1×PBS, 4 minutes of antibody loading (concentration of 50 μg/ml in 1×PBS), 1-2 minutes of baseline stabilization, 4 minutes of antibody:antigen association, and 4 minutes of antibody:antigen dissociation. 1×PBS is used as the matrix throughout. Data are analyzed with Octet Data Analysis software, processed, and fit to a 1:1 binding model to determine kinetic parameters (Kd, kₒₙ and kdiss).
Table A-2 describes approximate EpCAM binding affinity and dissociation rate as determined for Ab#1, Ab#2, Ab#3, Ab#4, Ab#5, Ab#6, Ab#7, Ab#8, Ab#9, Ab#10, Ab#11, Ab#12, and Ab#13.
A general note: Biolayer interferometry detects binding as a change in optical thickness at a sensor tip.
As to B1, the dissociation constant (Kd) worked out at 10 nM and the koff stood at 0.00043 s⁻¹.
For B2 the same measures were 4.57 nM and 0.000409 s⁻¹.
For B3 the same measures were 24.5 nM and 0.00166 s⁻¹.
The matching figures for B4: 26.2 nM and 0.00211 s⁻¹.

What is called Kd is the free concentration of one partner at which half of the binding sites on the other are occupied at equilibrium, for simple one-to-one binding. The term koff denotes the rate constant with which the complex falls apart.
